# Experimental data reported in US20070134256A1 (US Dept. of Health and Human Services, published 2007).
# Substitutions are numbered along the chain they refer to. Read-outs that look alike come from different tables or passages of the source.
# T1: Langat virus (LGTV) strain TP 21 (Langat virus, UniProt P29837 281-776)
# T1 sequence: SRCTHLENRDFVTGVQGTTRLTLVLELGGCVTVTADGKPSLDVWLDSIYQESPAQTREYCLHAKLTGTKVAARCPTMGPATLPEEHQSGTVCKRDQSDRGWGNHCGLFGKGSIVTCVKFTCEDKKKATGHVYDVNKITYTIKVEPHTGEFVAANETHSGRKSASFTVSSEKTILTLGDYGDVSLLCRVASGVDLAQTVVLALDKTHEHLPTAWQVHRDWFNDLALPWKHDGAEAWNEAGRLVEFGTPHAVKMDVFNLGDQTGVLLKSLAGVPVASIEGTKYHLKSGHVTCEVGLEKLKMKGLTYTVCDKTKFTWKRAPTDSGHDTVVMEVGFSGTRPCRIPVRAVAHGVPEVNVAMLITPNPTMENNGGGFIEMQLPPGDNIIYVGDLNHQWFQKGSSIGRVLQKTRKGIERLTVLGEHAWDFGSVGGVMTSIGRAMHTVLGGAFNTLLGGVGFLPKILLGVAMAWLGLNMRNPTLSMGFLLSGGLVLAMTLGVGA
# B1: chimpanzee Fab 3E4 (Fab, V domains shown)
# VH: VQLLEQSGAEVKKPGGSVKVSCKVSGGTFSRNPISWVRQAPGQGLEWMSVIVPIVGTTKHAQKFQGRVTITADESTSTAYMELSSLRSEDTAVYYCATYRRYADVSSYSEYWGQGTLVTVSS
# VL: ELTQSPLSLPVTLGQPASISCRSSQNLVHSDGNTYLSWIQQRPGQPPRLLIYKVSNRDSGVPDRFSGSGAGTDFTLKITRVEAEDVGLYYCVQGVQFPITFGQGTKLEIKR
# B2: chimpanzee Fab 3C1 (Fab, V domains shown)
# VH: EVQLLESGAEVKKPGGSVKVSCKVSGGTLSSYGISWVRQAPGQGPEWMGVIIPIRGTANYAQKFQGRVTYTADESTSTVYMELSSLRSEDTAVYYCATGRRGRYPTGSFDYWGQGALVTVSS
# VL: ELQMTQSPSTLSASVGDRVTVTCRASEDLNKWLAWYQQKPGKAPKLLIYKASSLESGVPSRFSGSGSGTEFTLTISSLQPDDFATYYCQQYQSYPYTFGPGTKLEIKR
# B3: chimpanzee Fab 7G4 (Fab, V domains shown)
# VH: EVQLLESGGGLVQPGGSLTLSCAASGFTFSSYWMHWVRQAPGKGPEWVALIKKDGSEKYYAESVKGRFTISRDNAKNSLYLQMNSLRAEDTAVYYCTRRITTLTVISDAFDIWGQGTMVTVSS
# VL: ELTQSPSTLSASVGDRVTITCRASQGISSWLAWYQQKPGKAPKFLIYKASSLESGVPSRFSGSGSGTEFTLTISSLQPDDFATYYCQQYGSYPLTFGPGTKVDIKR
# B4: chimpanzee Fab 1A10 (Fab, V domains shown)
# VH: VQLLEESGAEVKKPGSSVKVSCKVSGGTFSRNPISWVRQAPGQGLEWMGVIVPIVGTTKHAQKFQGRVTIIADESTSTAYMELSSLRSEDTAVYYCATYYADGSSYSEYWGQGTLVTVSS
# VL: ELQMTQSPLSLSVAPGQPASISCKSSQSLLHSDGNTYLFWYLQKSGQSPQLLIYGLSNRASGVPDRFSGSGSGTDFTLKISQVEAEDVGVFYCMQGTQLPYTFGQGTKLEIKR
# B5: chimpanzee Fab 1B2 (Fab, V domains shown)
# VH: EVQLLESGPGLVKPSQTLSLTCAVSGGSITSDHYFWSWMRQAPGRGLEWIGYISYRGTTYYNPSLKSRVTMSVTAAKNTLYLQMDGLRPEDTAVYYCARASVTAGMPAAGTLDHWGQGTLVTVSS
# VL: ELQMTQSPSSLSASVGDRVTITCRASQGISSELNWYQQKPGKAPKLLIYDASSLESGVPSRFSGSGSGTDFTLTISSLQPEDFATYYCQHFNSFPWTFGQGTKLEIKR
# B6: chimpanzee Fab 2H7 (Fab, V domains shown)
# VH: EVQLLESGGGLVQPGGSRRLSCAASGFTISDNVMHWVRQAPGKGLEWVALIYSADSTHYADSVKGRFTISRDNSKNTLYLQMDGLRPEDTAVYYCAREYCTGGTCFAHFDYWGQGTLVTVSS
# VL: ELQMTQSPSSLSASVGDRVTITCRASQSITNYLSWYQQKPGKAPKLLISYSSTLQSGVPSRFSGSGSGTDFTLTISSLQPEDFATYYCHYGYGTHTFGPGTKVDIKR
# B7: humanized IgG1 1A5 (antibody, V domains shown)
# VH: B6 VH with S56T, G84S, G103D, T119S
# VL: ELQMTQSPSSVSASVGDTVTIACRASQSITNYLSWYQQKPGKAPKLLIYHASTLQSGIPSRFSGSGSGTDFTLTISSLQPDDFATYYCHYGYGTHTFGQGTKLEIKR
# B8: chimpanzee Fab 3A2 (Fab, V domains shown)
# VH: B6 VH with E1V, V2Q, Q3L, L5E, E6Q, A24V, S56T, G84S
# VL: ELTQSPSSVSASVGDTVTIACRASQSITNYLSWYQQKPGKAPKLLIYHASTLQSGIPSRFSGSGSGTDFTLTISSLQPDDFATYYCHYGYGTHTFGQGTKLEIKR
# Legend:
# [1] = biological target: T2, dengue type 1 virus (DENV-1), Western Pacific strain, virions (dengue type 1 virus, UniProt P17763 281-775; P17763 115-280); assay: cell-based or functional assay
# [2] = biological target: T3, dengue type 4 virus (DENV-4), strain 814669, virions (dengue type 4 virus, UniProt P09866 280-774; P09866 114-279); assay: cell-based or functional assay
# [3] = biological target: T4, dengue type 3 virus (DENV-3), strain H87, virions (dengue type 3 virus, UniProt P27915 281-773; P27915 115-280); assay: cell-based or functional assay
# [4] = biological target: T5, dengue type 2 virus (DENV-2), prototype New Guinea C strain, virions (dengue type 2 virus, UniProt P14340 281-775; P14340 115-280); assay: cell-based or functional assay
# [5] = biological target: T3, dengue type 4 virus (DENV-4), strain …; assay: cell-based or functional assay; remark: listed apart in the source
# [6] = biological target: T2, dengue type 1 virus (DENV-1), Western …; assay: ELISA, virion-coated plate, Fab from ~300 µg/ml
# [7] = biological target: T3, dengue type 4 virus (DENV-4), strain …; assay: ELISA, virion-coated plate, Fab from ~300 µg/ml
# [8] = biological target: T4, dengue type 3 virus (DENV-3), strain …; assay: ELISA, virion-coated plate, Fab from ~300 µg/ml
# [9] = biological target: T5, dengue type 2 virus (DENV-2), prototype …; assay: ELISA, virion-coated plate, Fab from ~300 µg/ml
# [10] = biological target: DENV-4 prM glycoprotein (dengue type 4 virus, UniProt P09866 114-279); assay: radioimmunoprecipitation of prM expressed alone by recombinant vaccinia virus
# [11] = biological target: T2, dengue type 1 virus (DENV-1), Western …; assay: ELISA, virion-coated plate, Fab from ~140 µg/ml
# [12] = biological target: T3, dengue type 4 virus (DENV-4), strain …; assay: ELISA, virion-coated plate, Fab from ~140 µg/ml
# [13] = biological target: T4, dengue type 3 virus (DENV-3), strain …; assay: ELISA, virion-coated plate, Fab from ~140 µg/ml
# [14] = biological target: T5, dengue type 2 virus (DENV-2), prototype …; assay: ELISA, virion-coated plate, Fab from ~140 µg/ml
# [15] = biological target: T6, DENV-4 E glycoprotein (dengue type 4 virus, UniProt P09866 280-774); assay: radioimmunoprecipitation of E expressed alone by recombinant vaccinia virus
# T6 construct: also called vDENV-4 E product
# [16] = biological target: T2, dengue type 1 virus (DENV-1), Western …
# [17] = biological target: T3, dengue type 4 virus (DENV-4), strain …
# [18] = biological target: T4, dengue type 3 virus (DENV-3), strain …
# [19] = biological target: T5, dengue type 2 virus (DENV-2), prototype …
# [20] = biological target: WNV/DENV-4 chimera (West Nile virus); assay: cell-based or functional assay
# [21] = biological target: DENV-1 strain Hawaii (dengue type 1 virus); assay: cell-based or functional assay
# [22] = biological target: T3, dengue type 4 virus (DENV-4), strain …; assay: cell-based or functional assay; remark: listed apart in the source
# [23] = biological target: Japanese encephalitis virus (JEV) vaccine strain SA14-14-2 (Japanese encephalitis virus); assay: cell-based or functional assay
# [24] = biological target: DENV-2 New Guinea B (NGB) parent virus (dengue type 2 virus); assay: cell-based or functional assay
# [25] = biological target: T1, Langat virus (LGTV) strain TP 21; assay: cell-based or functional assay
# [26] = biological target: T4, dengue type 3 virus (DENV-3), strain …; assay: cell-based or functional assay; remark: listed apart in the source
Binder,PRNT50 titer [1],PRNT50 titer [2],PRNT50 titer [3],PRNT50 titer [4],PRNT50 titer [5],ELISA titer of Fab binding [6],ELISA titer of Fab binding [7],ELISA titer of Fab binding [8],ELISA titer of Fab binding [9],ELISA titer of Fab binding [11],ELISA titer of Fab binding [12],ELISA titer of Fab binding [13],ELISA titer of Fab binding [14],other results
B1,42.7 µg/mL,40.5 µg/mL,> 100 µg/mL,> 100 µg/mL,91 µg/mL,4.61 log10 of reciprocal dilution,4.61 log10 of reciprocal dilution,4.61 log10 of reciprocal dilution,4.31 log10 of reciprocal dilution,4 log10 of reciprocal dilution,3.8 log10 of reciprocal dilution,3.6 log10 of reciprocal dilution,3.8 log10 of reciprocal dilution,binding result [10]: no binding
B2,,,,,> 200 µg/mL,1.3 log10 of reciprocal dilution,3.71 log10 of reciprocal dilution,1.3 log10 of reciprocal dilution,3.11 log10 of reciprocal dilution,,,,,binding result [15]: no binding
B3,,,,,121 µg/mL,4.01 log10 of reciprocal dilution,4.01 log10 of reciprocal dilution,4.01 log10 of reciprocal dilution,4.01 log10 of reciprocal dilution,,,,,binding result [10]: no binding
B4,0.94 µg/mL,12.6 µg/mL,26.3 µg/mL,5.26 µg/mL,,,,,,4.1 log10 of reciprocal dilution,3.8 log10 of reciprocal dilution,3.6 log10 of reciprocal dilution,3.8 log10 of reciprocal dilution,
B5,0.5 µg/mL,29.2 µg/mL,> 100 µg/mL,3.13 µg/mL,,,,,,3.9 log10 of reciprocal dilution,3.8 log10 of reciprocal dilution,3.8 log10 of reciprocal dilution,3.8 log10 of reciprocal dilution,
B6,0.26 µg/mL,7.26 µg/mL,5.92 µg/mL,0.33 µg/mL,,,,,,4.1 log10 of reciprocal dilution,3.8 log10 of reciprocal dilution,3.6 log10 of reciprocal dilution,3.8 log10 of reciprocal dilution,
B7,,,,,,,,,,,,,,Kd [16]: 0.5 nM; Kd [17]: 0.82 nM; Kd [18]: 0.67 nM; Kd [19]: 0.6 nM; PRNT50 titer [20]: ~3.8 µg/mL; PRNT50 titer [21]: 0.48 µg/mL; PRNT50 titer [22]: 4.3 µg/mL; PRNT50 titer [23]: 21 µg/mL; PRNT50 titer [24]: 0.95 µg/mL; PRNT50 titer [25]: 28 µg/mL; PRNT50 titer [26]: 3.2 µg/mL
B8,0.37 µg/mL,4.71 µg/mL,2.99 µg/mL,1.33 µg/mL,,,,,,4.1 log10 of reciprocal dilution,3.8 log10 of reciprocal dilution,3.8 log10 of reciprocal dilution,3.8 log10 of reciprocal dilution,
